In US7488592 (WASHINGTON UNIVERSITY, dated 2009):
Substitutions are numbered along the chain they refer to.

Columns and labels:
[1] = target: T1, FLAG-Erf2(C189S)p (yeast (S. cerevisiae), UniProt Q06551 1-359); assay: co-purification on GSH-agarose from yeast extracts, immunoblot (FIG. 6B)
T1 construct: Loss-of-function mutant in the DHHC domain, expressed in yeast
T1 sequence: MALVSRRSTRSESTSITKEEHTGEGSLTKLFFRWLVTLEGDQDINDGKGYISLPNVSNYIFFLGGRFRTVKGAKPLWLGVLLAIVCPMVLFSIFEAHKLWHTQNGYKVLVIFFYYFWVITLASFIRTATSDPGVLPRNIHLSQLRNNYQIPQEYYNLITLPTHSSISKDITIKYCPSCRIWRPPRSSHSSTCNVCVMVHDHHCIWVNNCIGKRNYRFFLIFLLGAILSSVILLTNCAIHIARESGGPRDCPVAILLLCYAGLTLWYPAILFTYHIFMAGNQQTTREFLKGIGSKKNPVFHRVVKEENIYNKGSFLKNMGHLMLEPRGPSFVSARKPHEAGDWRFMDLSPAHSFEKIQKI
Method: (§1) Expression of FLAG-Erf2p was determined by affinity purification on anti-FLAG antibody linked to agarose beads followed by an anti-FLAG immunoblot (bottom panel). (FIG. 6C) The Ras PAT activity of partially purified extracts of ERF2 and ERF4 wild type and mutant strains was assayed as described in Example 1.
(§2) Purification of Erf2p/Erf4p Complex—RJY543 yeast cells expressing GST-Erf4p along with FLAG-Erf2p or FLAG-Erf2p mutants (Erf2(H201A)_p, Erf2(C189S)p, Erf2(C203S) p) were solubilized in Y-PER® reagent as described above. *E. coli* cells expressing GST-Erf4p along with FLAG-Erf2p or FLAG-Erf2p mutants (Erf2(H201A)p, Erf2(C203S)p) were lysed by high pressure (25,000 p.s.i.) homogenization (Avestin) in 50 mM Tris-HCl, pH 7.4, 150 mM NaCl, 1 mM DTT, 1 mM EDTA, and 0.13 mM phenylmethylsulfonyl fluoride (Buffer A). […]
(§3) Immunoblotting—Proteins bound to the GSH-agarose beads were analyzed for the presence of both GST and FLAG peptide fusion proteins. GST fusion proteins were detected by immunoblotting with rabbit anti-GST (Molecular Probes) antibody and peroxidase-conjugated goat anti-rabbit secondary antibody (Sigma). FLAG-tagged proteins were detected on Western blots by probing with anti-FLAG® M5 monoclonal antibody (Sigma) and peroxidase-conjugated sheep anti-mouse secondary antibody (Amersham Biosciences).

[2] = target: T2, FLAG-Erf2p (yeast (S. cerevisiae), UniProt Q06551 1-359); assay: co-purification on GSH-agarose from yeast extracts, anti-FLAG immunoblot
T2 construct: Expressed in yeast RJY543 (pESC) or in E. coli XL1 Blue (pFLAG-MAC operon fusion); also called FLAG-tagged Erf2p; yeast Erf2
T2 sequence: T1 sequence with S189C
Method: as §1, §2, §3

B1: GST-Erf4p (other)
chain: MCDSHQKEEDNANTSERALFFNYHEFSYSFYEDLGSEDAKPTEHDEDHKLCITHFPNVYAARGSAEFQVTRVVRVPRRFDESRSSLETPQFSTQLPGSEPAAIVGDDGTSFVRCGRYDIGDHVFGCSSVSPLSEYLSAAELAEVVHRVNGFLLREEGEVFGWRNLSGLLLDMLTGGLWSWVLGPLLSRPVFQESLALEQYVAQLNSPGGLLHERGVRLVLPRRSGCLSLDFVVPRPK
notes: also called yeast Erf4; YOL110W; not shown: glutathione S-transferase (GST) moiety fused in frame to the N-terminus; vector pEG(KG) in yeast, pFLAG-MAC operon fusio
B1: no binding [1]; binds [2].
